Results: paper PMC11147780, “Vaccination induces broadly neutralizing antibody precursors to HIV gp41” (Nature Immunology, 2024)
Substitutions are numbered along the chain they refer to.

T1: 10E8-GT10.2 epitope scaffold (designed scaffold 10E8-GT10.2 with …, N-linked glycosylation sites added (positions not given))
T1 chain: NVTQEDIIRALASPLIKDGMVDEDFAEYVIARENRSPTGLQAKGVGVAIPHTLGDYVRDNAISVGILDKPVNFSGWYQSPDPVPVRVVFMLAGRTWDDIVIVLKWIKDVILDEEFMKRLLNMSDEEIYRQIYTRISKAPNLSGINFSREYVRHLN

B1: NHP-10E8_MPER-GT10v55_W21-07 (antibody, V domains shown)
VH: EVQLVESGGGLVQPGGSLRLSCAASGFTFSDYAMDWVRQAPGKGLEWVGFIRSKAYGGTAEYAASVKGRFTISRDDSKNTAYLQMSSLKTEDTAVYYCTRAARGYNFWSGYYTGYGLDSWGQGVVVTVSS
VL: EIVMTQSPATLSLSPGERATLSCRTSQSVSSYVAWYQQKPEQAPRLLIYGASSRATGIPDRFSGGGSGTDFTLTISSLEPEDFAVYYCQQYSNWPYSFGQGTKVEIK
B2: NHP-10E8_MPER-GT10v55_W26-01 (antibody, V domains shown)
VH: QLQLQESGPGLVKPSETLSLTCAVSGGSISSNYWSWIRQPPGKGLEWIGRISGSGGSTDYNPSLKSRVTISTDTSKNQFSLKLSSVTAADTAVYYCAGNSHYYNFWSGYYGDNSLDVWGRGVLVTVSS
VL: SYDVTQPRSVSVSPGQTARITCGGDNIGSKNVHWYQQKPAQAPVLVIYYDSDRPSGIPERFSGSNSGNTATLTISGVEAGDEADYYCQVWDSSSDHRLFGGGTRLTV
B3: NHP-10E8_MPER-GT10v55_W10-11 (antibody, V domains shown)
VH: EVQLVESGGGLVQPGGSLRLSCAASGFAFSDYTMDWVRQAPGKGLEWVGFIRSRDYGGKVDYAASVKGRFTISRDDSKNTAYLHMSSLKTEDTAVYYCTRSKRHYSFWSGDYPHYGLDSWGQGVVVTVSS
VL: QSVVTQPPSVSGDPGQRVTIYCTGNSSNIGGYDVYWYQQVPGTAPKLLMYENNKRPSGVSDRFSGSKSGTSASLTITGLQSEDEAEYYCETWDNSLNGRVFGGGTRLTV
B4: NHP-10E8_MPER-GT10v55_W10-12 (antibody, V domains shown)
VH: EVHLVESGGGLVQPGGSLRLSCAASGFTFSDYAMDWVRQAPGKGLEWVGFIGSKDYGGTVEYAASVKGRFTISRDDLKNTAYLQMSRLKTEDTAVYYCTRSKTCYSFWSGYYPHYGLDSWGQGVVVTVSS
VL: B3 VL with V4L, Y21S, Y32F, Q39L, V40L, M49I, N53T, V59I, V100L
B5: NHP-10E8_MPER-GT10v55_W21-05 (antibody, V domains shown)
VH: EVRLVESGGGLVQPGGSLRLSCAASGFTFSDYYMSWVRQAPGKGPEWVGFIRNKANGGTAEYAASVKGRFTISRDDSKSIASLQMNSLKTEDTAVYYCARDTYTYNFWSGYYRSNSLDVWGRGVLVTVSS
VL: SYDLTQPPSVSVSPGQTARITCGGDNIGSEAVHWYQQKPPQAPVQVIYSDSERPSGIPERFSGSKSGNTATLTISGVEAGDEADYYCQVWDISSDHYIFGAGTRLTV
B6: NHP-10E8_MPER-GT10v55_W21-06 (antibody, V domains shown)
VH: EVRLVESGGGLVQPGGSLRLSCAASGFTFSDYYMSWVRQAPGKGPEWVGFIRNKANGGTAEYAASVKGRFTISRDDSKSIASLQMNSLKTEDTAVYYCAREKVYYNFWSGYLENYGLDSWGQGVVVTVSS
VL: DVVMTQSPLSLPITPGQPASISCRSSQSLVYSDGKTYLNWYQQKPGQPPRRLIYQVSNRDSGVPDRFSGSGAGTDFTLKISRVEAEDVGVYYCMQGTHLPYSFGQGTKVEIK
B7: NHP-10E8_MPER-GT10v55_W21-03 (antibody, V domains shown)
VH: EVHLVESGAGLVQPGGSLRLSCAASGFTFRNSWMSWVRQAPGKGLEWIARIKRKADGETTDYAASVKGRFTLSRDDSKNTVYLQMDSLKTEDTAVYYCTTDQGYYNFWSGNYDYYGLDSWGQGVVVAVSS
VL: DIQMTQSPSSLSAFVGDRVTITCRASQGISTHLNWYQQKPGKAPKRLIYTSSNLETGVPSRFSGSGSGTDFTLTISSLQPEDFATYYCLQYNSDPWTFGQGTKVEIK
B8: NHP-10E8_MPER-GT10v55_W10-10 (antibody, V domains shown)
VH: EVQVVESGGGLVQPGGSLRLSCAASGFTFSDYAMDWVRQAPGKGLEWVGFIRSKDYGGTAEYAASVKGRFTISRDDSKNTAYLQMSSLKTEDTAVYYCTRDRRYYSFWSGYDRGWYFDLWGQGALVTVSS
VL: DIVMTQTPLSLPVTLGEPASISCRSSQSLLNSEDGNTSLAWYLQKPGQSPQLLIYEVSNRASGVPDRFSGSGSDTDFTLKISRVEAEDVGVYYCMQPLEFPPTFGQGTKVEIK

Molecular target: T1, 10E8-GT10.2 epitope scaffold

Compared with B1, B2 is 2.1-fold lower in Kd: 7.64 µM for the first, 3.69 µM for the second.

Compared with B3, B4 is 5.5-fold lower in Kd: 4.16 µM for the first, 0.752 µM for the second.

Compared with B5, B6 is 2.5-fold higher in Kd: 2.41 µM for the first, 5.92 µM for the second. The first binds more tightly here.

Compared with B7, B8 is 87-fold lower in Kd: 8.32 µM for the first, 0.0956 µM for the second.
